Measured values taken from publication PMC9798254.

Key:
[1] = substrate: O=P(O)(O)OC[C@@H](O)[C@H]1O[C@H](OP(=O)(O)O)[C@@H](O)[C@@H](O)[C@@H]1O; assay: purified protein; conditions: 100 mM Tris/HCl pH 7.8, 5 mM MgCl2, 25°C
[2] = substrate: O=P(O)(O)OC[C@@H](O)[C@H]1O[C@@H](OP(=O)(O)O)[C@@H](O)[C@@H](O)[C@@H]1O; assay: purified protein; conditions: 100 mM Tris/HCl pH 7.8, 5 mM MgCl2, 25°C

B1: ecGmhB (Escherichia coli K-12) (protein)
chain: MAKSVPAIFLDRDGTINVDHGYVHEIDNFEFIDGVIDAMRELKKMGFALVVVTNQSGIARGKFTEAQFETLTEWMDWSLADRDVDLDGIYYCPHHPQGSVEEFRQVCDCRKPHPGMLLSARDYLHIDMAASYMVGDKLEDMQAAVAANVGTKVLVRTGKPITPEAENAADWVLNSLADLPQAIKKQQKPAQ
Km [1]: 117 ± 15 µM | kcat [1]: 3.5 ± 0.2 s⁻¹ | kcat/Km [1]: 29900 M⁻¹ s⁻¹ | Km [2]: 2.3 ± 0.3 µM | kcat [2]: 35.7 ± 1.1 s⁻¹ | kcat/Km [2]: 1.55e+07 M⁻¹ s⁻¹
